{"source": "paper PMC9521928", "biological_target": "CPXV14-His (His-tagged recombinant cowpox virus Brighton Red CPXV14) (cowpox virus (Brighton Red strain))", "test": "BLI; […] (10 μg/mL, 2 min), […]; PBS pH 7.4, 0.005% Tween-20; 25°C; steady-state fit, 1:1 binding model; […]"}
{"substance": "soluble recombinant murine FcγRIIB (mCD32B) ectodomain (from UniProt P08101 30-210) (receptor)", "values": [{"measurement": "Kd", "result": 3.6, "unit": "nM"}]}
